Measured values published in the supplement of paper PMC9112550, “Optimization of the antimicrobial peptide Bac7 by deep mutational scanning” (BMC Biology, 2022).

system: Escherichia coli TOP10; experiment: shrunken log2 fold change of peptide-encoding DNA abundance (4.5 h post-induction vs induction); higher = less antimicrobial activity (less host growth inhibition); conditions: time post-induction: 4.5 h; library: site-saturation at positions 5, 18, 19, 20
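Further: peptides expressed intracellularly from a pBAD plasmid library in pooled LB shake-flask culture, induced with 0.3% L-arabinose, DNA abundance read by NGS, three biological replicates, DESeq2 with apeglm shrinkage.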

Sequence | shrunken log2 fold change
RRIRDRPPRLPRPRPRPAMCPRP | 0.531
RRIRMRPPRLPRPRPRPSSWPRP | 0.477
RRIRWRPPRLPRPRPRPHEVPRP | 0.169
RRIRYRPPRLPRPRPRPSYFPRP | -0.684
RRIRIRPPRLPRPRPRPAQGPRP | 0.168
RRIRSRPPRLPRPRPRPDCHPRP | -0.0994
RRIRSRPPRLPRPRPRPASPPRP | -0.0809
RRIRARPPRLPRPRPRPAAFPRP | 0.787
RRIRCRPPRLPRPRPRPLHQPRP | -0.168
RRIRWRPPRLPRPRPRPEPRPRP | 0.886
RRIRWRPPRLPRPRPRPRLVPRP | 0.476
RRIRTRPPRLPRPRPRPLNSPRP | -0.347
RRIRPRPPRLPRPRPRPGRSPRP | 0.0919
RRIRVRPPRLPRPRPRPWTGPRP | -0.0167
RRIRGRPPRLPRPRPRPIFFPRP | 0.237
RRIRSRPPRLPRPRPRPLGDPRP | 0.0783
RRIRFRPPRLPRPRPRPIQHPRP | -0.196
RRIRERPPRLPRPRPRPNVRPRP | 0.0403
RRIRNRPPRLPRPRPRPTRKPRP | 0.623
RRIRARPPRLPRPRPRPTIDPRP | 0.301
RRIRRRPPRLPRPRPRPYMGPRP | 0.00385
RRIRPRPPRLPRPRPRPGWEPRP | 0.462
RRIRTRPPRLPRPRPRPCIIPRP | -0.0804
RRIRHRPPRLPRPRPRPMTMPRP | -0.257
RRIRHRPPRLPRPRPRPRNCPRP | -0.112

Sequence | shrunken log2 fold change
RRIRSRPPRLPRPRPRPSIWPRP | 0.266
RRIRGRPPRLPRPRPRPWFRPRP | -0.0346
RRIRHRPPRLPRPRPRPLHAPRP | 0.297
RRIRKRPPRLPRPRPRPLSKPRP | 0.213
RRIRDRPPRLPRPRPRPTQTPRP | 0.121
RRIRTRPPRLPRPRPRPCQVPRP | -0.304
RRIRYRPPRLPRPRPRPDSCPRP | 0.0675
RRIRLRPPRLPRPRPRPSDMPRP | -0.18
RRIRHRPPRLPRPRPRPVPQPRP | -0.0725
RRIRSRPPRLPRPRPRPPRDPRP | 1.34
RRIRSRPPRLPRPRPRPMFHPRP | -0.438
RRIRARPPRLPRPRPRPQDHPRP | -0.208
RRIRYRPPRLPRPRPRPNENPRP | -0.744
RRIRQRPPRLPRPRPRPAWSPRP | 0.183
RRIRSRPPRLPRPRPRPIYKPRP | -0.243
RRIRQRPPRLPRPRPRPEMMPRP | 0.151
RRIRSRPPRLPRPRPRPEDFPRP | -0.149
RRIRARPPRLPRPRPRPYCTPRP | -0.0621
RRIRSRPPRLPRPRPRPPRQPRP | 0.389
RRIRFRPPRLPRPRPRPQVFPRP | -0.139
RRIRNRPPRLPRPRPRPTACPRP | 0.0275
RRIRVRPPRLPRPRPRPCWEPRP | -0.0578
RRIRQRPPRLPRPRPRPFGGPRP | 0.0432
RRIRTRPPRLPRPRPRPKVDPRP | 0.195
RRIRVRPPRLPRPRPRPAIVPRP | -0.149

Sequence | shrunken log2 fold change
RRIRDRPPRLPRPRPRPNQIPRP | -0.044
RRIRYRPPRLPRPRPRPVTCPRP | -0.0508
RRIRWRPPRLPRPRPRPIGWPRP | 0.534
RRIRHRPPRLPRPRPRPDDHPRP | 0.0155
RRIRTRPPRLPRPRPRPDMGPRP | -0.0558
RRIRQRPPRLPRPRPRPWQGPRP | -0.137
RRIRFRPPRLPRPRPRPHTQPRP | -0.225
RRIRSRPPRLPRPRPRPMQMPRP | 0.512
RRIRVRPPRLPRPRPRPFSWPRP | -0.144
RRIRFRPPRLPRPRPRPWLNPRP | -0.189
RRIRSRPPRLPRPRPRPCVWPRP | 0.8
RRIRPRPPRLPRPRPRPWITPRP | -0.469
RRIRCRPPRLPRPRPRPCYDPRP | -0.316
RRIRTRPPRLPRPRPRPARCPRP | 0.324
RRIRSRPPRLPRPRPRPDNPPRP | -0.0934
RRIRNRPPRLPRPRPRPILKPRP | 0.0926
RRIRPRPPRLPRPRPRPWHFPRP | -0.12
RRIRQRPPRLPRPRPRPKFKPRP | 0.0538
RRIRIRPPRLPRPRPRPPYEPRP | -0.315
RRIRQRPPRLPRPRPRPHTQPRP | 0.0338
RRIRARPPRLPRPRPRPDKFPRP | -0.19
RRIRIRPPRLPRPRPRPFNPPRP | -0.0657
RRIRERPPRLPRPRPRPLLEPRP | 0.105
RRIRARPPRLPRPRPRPKMFPRP | -0.0487
RRIRKRPPRLPRPRPRPRWQPRP | 0.189
